{"source": "patent US20250368684A1", "about": "“NEW EGFRVIII-BINDING PEPTIDES, CONJUGATES AND USES THEREOF” (NANOTHERA BIOSCIENCES, INC., priority 2021, published 2025)", "molecules": {"B1": {"name": "NESGITRIALQD phage displayed peptide (peptide)", "peptide": "NESGITRIALQD", "modifications": "also: displayed on M13 phage coat protein", "notes": "not shown: M13 coat protein of the Ph.D.-12 library that carries the peptide"}, "B2": {"name": "FITC-Ahx-…-CONH2 (peptide)", "peptide": "{FITC-Ahx}-YHWYGYTPENVI-NH2", "SMILES": "CC[C@H](C)[C@H](NC(=O)[C@@H](NC(=O)[C@H](CC(N)=O)NC(=O)[C@H](CCC(=O)O)NC(=O)[C@@H]1CCCN1C(=O)[C@@H](NC(=O)[C@H](Cc1ccc(O)cc1)NC(=O)CNC(=O)[C@H](Cc1ccc(O)cc1)NC(=O)[C@H](Cc1c[nH]c2ccccc12)NC(=O)[C@H](Cc1c[nH]cn1)NC(=O)[C@H](Cc1ccc(O)cc1)NC(=O)CCCCCNC(=S)Nc1ccc2c(c1)C(=O)OC21c2ccc(O)cc2Oc2cc(O)ccc21)[C@@H](C)O)C(C)C)C(N)=O"}, "B3": {"name": "FITC-Ahx-FALGEA-CONH2 (peptide)", "peptide": "{FITC-Ahx}-FALGEA-NH2", "SMILES": "CC(C)C[C@H](NC(=O)[C@H](C)NC(=O)[C@H](Cc1ccccc1)NC(=O)CCCCCNC(=S)Nc1ccc2c(c1)C(=O)OC21c2ccc(O)cc2Oc2cc(O)ccc21)C(=O)NCC(=O)N[C@@H](CCC(=O)O)C(=O)N[C@@H](C)C(N)=O"}, "B4": {"name": "LEKGNTLSTSTV phage displayed peptide (peptide)", "peptide": "LEKGNTLSTSTV", "modifications": "also: displayed on M13 phage coat protein", "notes": "as for B1"}}, "key": {"[1]": {"target": "T1, EGFR WT cells (expressing EGFR WT) (Homo sapiens, UniProt P00533)", "T1 construct": "host or cells: CLTH/EGFR WT, established from human embryo kidney cells", "test": "Flow cytometry cellular binding of FITC-Ahx-peptides on EGFR WT cells", "settings": "10 µM FITC-Ahx-peptide, 20 min at RT", "excerpt": "(§1) 293T human embryo kidney cells (Sigma; #85120602-1VL), CLTH/EGFR WT cells (Celther; #CL 01010-CLTH) and CLTH/EGFRvIII cells (Celther; #CL 01001-CLTH) were purchased from Sigma and Celther accordingly. CLTH/EGFR WT and CLTH/EGFRvIII cell lines are established from human embryo kidney cells to stably express EGFR WT and EGFRvIII proteins respectively. The three types of cells were maintained in Dulbecco's modified Eagle media (high glucose) supplemented with 10% fetal bovine serum (FBS), 100 U/mL penicillin, […] streptomycin and 1% MEM NEAA. The cells were cultured at 37° C. in a humidified atmosphere containing 5% CO2.\nOn FITC-Ahx-peptides. Flow cytometry analysis was also performed to quantitatively analyze the binding affinity of the synthetized peptides to the different cell types. […] Cells were analyzed by flow cytometry on a MACSQuant Analyser 16 (Miltenyi Biotec) using the MACS Quantify software to acquire and process the data. LIVE/DEAD™ Fixable dye was excited at 640 nm and fluorescence was collected with the 785/62 nm filter. FITC was excited at 488 nm and fluorescence was collected with the 525/50 nm filter. Viable cells were gated, FITC fluorescence intensity was recorded and the mean fluorescence intensity (MFI) was measured. MFI values were then normalized by substracting MFI from blank cells and dividing by the correction factor determined using a spectrofluorimeter. […]"}, "[2]": {"target": "T2, EGFRvIII cells (expressing EGFRvIII) (Homo sapiens, UniProt P00533, DELINS30-297G)", "T2 construct": "host or cells: CLTH/EGFRvIII, established from human embryo kidney cells", "test": "Flow cytometry cellular binding of FITC-Ahx-peptides on EGFRvIII cells", "settings": "for Normalized MFI vIII: 10 µM FITC-Ahx-peptide, 20 min at RT, EGFRvIII cells", "excerpt": "as §1\n(§2) On FITC-Ahx-peptides. Flow cytometry analysis was also performed to quantitatively analyze the binding affinity of the synthetized peptides to the different cell types. Briefly, 293T, CLTH/EGFR WT and CLTH/EGFRvIII cells (100 000 cells, 500 μL) were plated in 24-well plates and incubated overnight at 37° C. in a humidified atmosphere containing 5% CO2 overnight. […] Cells were analyzed by flow cytometry on a MACSQuant Analyser 16 (Miltenyi Biotec) using the MACS Quantify software to acquire and process the data. LIVE/DEAD™ Fixable dye was excited at 640 nm and fluorescence was collected with the 785/62 nm filter. FITC was excited at 488 nm and fluorescence was collected with the 525/50 nm filter. Viable cells were gated, FITC fluorescence intensity was recorded and the mean fluorescence intensity (MFI) was measured. MFI values were then normalized by substracting MFI from blank cells and dividing by the correction factor determined using a spectrofluorimeter.\n(§3) Since FITC fluorescence can be impacted by the nature of the amino acids in the peptide sequence and since the conjugation rate of FITC in the peptide synthesis can fluctuate, it was needed to measure a correction factor according to the fluorescence intensity of each peptide. As flow cytometry cannot analyze fluorescence of small molecules, a spectrofluorimeter was used in similar conditions (excitation and emission) to the flow cytometry conditions."}, "293T cells": {"test_system": "293T cells", "test": "Flow cytometry cellular binding of FITC-Ahx-peptides on 293T cells", "parameters": "species or system human", "settings": "10 µM FITC-Ahx-peptide, 20 min at RT", "excerpt": "as §1, §2\nas §3, with “conditions. […] Linear regressions were determined for each peptide. […]” for “conditions.”"}, "[3]": {"target": "T3, CLTH/EGFRvIII cells expressing hEGFRvIII (Homo sapiens, UniProt P00533, DELINS30-297G)", "T3 construct": "host or cells: CLTH/EGFRvIII, established from human embryo kidney cells", "test": "Flow cytometry binding of phage displayed peptides on hEGFRvIII cells", "settings": "phage displayed peptide, vs hEGFR WT and 293T cells", "excerpt": "as §1\nCell cultures and flow cytometry experiments with phages or peptides were performed by Institut Mondor de Recherche Biomédicale (IMRB U955, France). […] Anti-IgG1 conjugated to phycoerythrin (PE) (Miltenyi Biotec) was used as a secondary antibody to read the fluorescence of PE. […]\nOn phages. […] Cells were analyzed by flow cytometry on a MACSQuant Analyser 16 (Miltenyi Biotec) using the MACS Quantify software to acquire and process the data. Viobility™ 405/520 fixable dye was excited at 405 nm and fluorescence was collected with the 525/50 nm filter. PE was excited at 488 nm and fluorescence was collected with the 579/34 nm filter. Viable cells were gated, and PE fluorescence intensity was recorded."}, "[4]": {"target": "T4, human EGF receptor variant III (EGFRvIII) on CLTH/EGFRvIII cells (human, UniProt P00533 25-1210)", "T4 construct": "whole, on cells", "test": "flow cytometry, phage on CLTH/EGFRvIII cells, anti-M13-biotin plus anti-biotin-PE"}, "[5]": {"target": "human wild type EGF receptor (EGFR WT) on CLTH/EGFR WT cells (human) (UniProt P00533)", "test": "flow cytometry, 10 uM FITC-Ahx-peptide, 20 min RT, CLTH/EGFR WT cells; MFI minus blank cells, divided by correction factor"}, "[6]": {"target": "human EGF receptor variant III (EGFRvIII) on CLTH/EGFRvIII cells (human) (UniProt P00533)", "test": "flow cytometry, normalized MFI on EGFRvIII cells over normalized MFI on EGFR WT cells"}, "[7]": {"target": "human EGF receptor variant III (EGFRvIII) on CLTH/EGFRvIII cells (human) (UniProt P00533)", "test": "flow cytometry, 10 uM FITC-Ahx-peptide, 20 min RT, CLTH/EGFRvIII cells; MFI minus blank cells, divided by correction factor"}}, "note": "No end group written: not given here. *: point of attachment. FITC = O=C1OC2(c3ccc(O)cc3Oc3cc(O)ccc32)c2ccc(NC(=S)*)cc21; Ahx = NCCCCCC(=O)O"}
{"molecule": "FITC-Ahx-FALGEA-CONH2: literature control peptide FALGEA (SEQ ID NO:5) linked to the FITC-Ahx tag ({FITC-Ahx}-FALGEA-NH2; SMILES CC(C)C[C@H](NC(=O)[C@H](C)NC(=O)[C@H](Cc1ccccc1)NC(=O)CCCCCNC(=S)Nc1ccc2c(c1)C(=O)OC21c2ccc(O)cc2Oc2cc(O)ccc21)C(=O)NCC(=O)N[C@@H](CCC(=O)O)C(=O)N[C@@H](C)C(N)=O)", "values": [{"measurement": "Normalized MFI WT", "setting": "[1]", "value": 0.7}, {"measurement": "Normalized MFI vIII", "setting": "[2]", "value": 1.8}, {"measurement": "Normalized MFI ratio VIII/WT", "setting": "[2]; normalized MFI of vIII cell line over WT cell line", "value": 2.6}, {"measurement": "Normalized MFI 293T", "setting": "293T cells", "value": 0.9}]}
{"molecule": "FITC-Ahx-VLGREEWSTSW-CONH2: VLGREEWSTSYW conjugated with FITC at the N-terminus via 6-aminohexanoic acid (Ahx) linker", "values": [{"measurement": "Normalized MFI 293T", "setting": "293T cells", "value": 5.1}]}
{"molecule": "FITC-Ahx-YHWYGYTPENVI-CONH2: literature control peptide YHWYGYTPENVI (SEQ ID NO:6) linked to the FITC-Ahx tag ({FITC-Ahx}-YHWYGYTPENVI-NH2; SMILES CC[C@H](C)[C@H](NC(=O)[C@@H](NC(=O)[C@H](CC(N)=O)NC(=O)[C@H](CCC(=O)O)NC(=O)[C@@H]1CCCN1C(=O)[C@@H](NC(=O)[C@H](Cc1ccc(O)cc1)NC(=O)CNC(=O)[C@H](Cc1ccc(O)cc1)NC(=O)[C@H](Cc1c[nH]c2ccccc12)NC(=O)[C@H](Cc1c[nH]cn1)NC(=O)[C@H](Cc1ccc(O)cc1)NC(=O)CCCCCNC(=S)Nc1ccc2c(c1)C(=O)OC21c2ccc(O)cc2Oc2cc(O)ccc21)[C@@H](C)O)C(C)C)C(N)=O)", "values": [{"measurement": "Normalized MFI WT", "setting": "[1]", "value": 4.5}, {"measurement": "Normalized MFI vIII", "setting": "[2]", "value": 9.7}, {"measurement": "Normalized MFI 293T", "setting": "293T cells", "value": 7.6}]}
{"molecule": "LEKGNTLSTSTV (phage displayed; Peptide selected from the NGS analysis, not showing specific binding to hEGFRvIII cells in flow cytometry) [peptide selected from NGS analysis of biopanning]", "values": [{"measurement": "specific binding to hEGFRvIII", "setting": "[3]", "value": "did not show specific binding"}]}
{"molecule": "NESGITRIALQD (Peptide selected from the NGS analysis, not showing specific binding to hEGFRvIII cells in flow cytometry) [peptide selected from NGS analysis of biopanning]", "values": [{"measurement": "specific binding to hEGFRvIII", "setting": "[3]", "value": "did not show specific binding"}]}
{"molecule": "B1", "values": [{"measurement": "binding result", "setting": "[4]", "value": "no binding"}]}
{"molecule": "B2", "values": [{"measurement": "Normalized MFI", "setting": "[5]", "value": 4.5}]}
{"molecule": "B3", "values": [{"measurement": "Normalized MFI ratio vIII/WT", "setting": "[6]", "value": 2.6}, {"measurement": "Normalized MFI", "setting": "[7]", "value": 1.8}]}
{"molecule": "B4", "values": [{"measurement": "binding result", "setting": "[4]", "value": "no binding"}]}
